In paper PMC4738263 (Scientific Reports, 2016):

Target: the molecule itself
Experiment: crystal structure; dimeric HT cyt c552 without a His-tag obtained from E. coli by freeze-thaw, purified; sitting-drop vapor diffusion at room temperature; 1.8 Å

B1: Hydrogenobacter thermophilus cytochrome c552, wild type, without a His-tag (holo protein) (natural protein, UniProt P15452 19-98, looked up)
chain: NEQLAKQKGCMACHDLKAKKVGPAYADVAKKYAGRKDAVDYLAGKIKKGGSGVWGSVPMPPQNVTDAEAKQLAQWILSIK
modifications: heme c attached (holo protein)
stoichiometry N: 2
